From patent publication US10709761B2, “Methods and compositions for preventing or treating cancer” (UNIVERSITY OF UTAH RESEARCH FOUNDATION, priority 2015, dated 2020)

How the values were obtained:
elephant fibroblasts = assay: Caspase 3/7 cleavage after doxorubicin, elephant fibroblasts; type: cell-based, African elephant; conditions: 10 μM and 30 μM doxorubicin
[1] = test system: African elephant lymphocytes; assay: Annexin V / propidium iodide apoptosis after doxorubicin, elephant lymphocytes; type: cell-based; conditions: 5 μM doxorubicin, 18 and 24 hours
Experimental: Ionizing radiation (0.5, 2, 5, 6, 10, and 20 Gy) or doxorubicin (0.005-30 μM) were used to induce DNA damage in the cultured primary PBLs, which were then evaluated for signs of apoptosis, DNA repair efficiency, and cell cycle arrest. Apoptosis was evaluated by measuring the number of cells that stained for Annexin V (AV) and propidium iodide (PI); cells were categorized as being in late apoptosis if they were AV+PI+, and in early apoptosis if they were AV+PI−. Apoptosis was also measured either using APO-TOX GLO™ (Promega, Madison, Wis.) or CASPASE-GLO® 3/7 Assay (Promega) and […]-GLO® (Promega). The results were normalized to cell viability either using counts from the MULTI-TOX-FLUOR™ assay (Promega) included with APO-TOX GLO™, or using […]-GLO® when caspase activity was measured. Statistically significant differences in apoptosis were calculated in […] PRISM®.

human fibroblasts = assay: Caspase 3/7 cleavage after doxorubicin, human fibroblasts; type: cell-based; conditions: 10 μM and 30 μM doxorubicin
U-2OS cells [2] = assay: Caspase activity / apoptosis in U-2OS cells expressing EP53 genes; type: cell-based, human; conditions: compared to empty vector
Experimental: U-2OS cells were transfected with EP53^r5 (SEQ ID NO: 12) or EP53 ancestral (EP53^anc) (SEQ ID NO: 2), and then treated with doxycycline to induce EP53^r expression. The cells were then treated with doxorubicin to damage the DNA.
(§1) U-2OS cells were also transduced with EP53^anc (SEQ ID NO: 2). These cells were then induced to express EP53^anc (SEQ ID NO: 3), and treated with doxorubicin to trigger DNA damage.

U-2OS cells [3] = assay: U-2OS cell viability after doxycycline induction; type: cell-based, human; conditions: 72 hours after induction with doxycycline
Experimental: U-2OS cells were also transfected with EP53^anc (SEQ ID NO: 2) and human TP53, and the cell viability after induction with doxycycline was observed after 72 hours.

U-2OS cells [4] = assay: U-2OS caspase activity after doxycycline induction; type: cell-based, human; conditions: after induction with doxycycline
[5] = test system: p53 target genes, p21 and MDM2; assay: Western blot of p53 pathway proteins in U-2OS cells expressing EP53^anc; type: cell-based, human
Experimental: For tetracycline inducible cells, the cells were treated with doxycycline for 24-48 hours prior to treatment with MG132 or doxorubicin. After the induction of DNA damage, the cells were harvested and pelleted. The cell pellets were frozen, and then lysed in cell lysis buffer containing phosphatase and protease inhibitors. The cell lysates were run on SDS-PAGE protein gels, and then transferred to PVDF membranes (western blots). The membranes were blocked, and then probed with primary antibodies to determine the p53 protein levels. The blots were probed with secondary HRP-conjugated antibodies, and the protein levels were detected using a substrate and a chemiluminometer. GAPDH was used as a loading control for each western blot. The blots were also probed for phosphorylated EP53^r at the serine-15 residue (phospho-EP53^r). DNA damage induces the phosphorylation of p53, which reduces the interaction of this protein with its negative regulator, mouse double minute 2 (MDM2) (Milczarek et al. Life Sci; 60: 1-11 (1997)).
as §1

[6] = U-2OS induced to express, doxorubicin-treated

Molecule | caspase 3/7 cleavage (elephant fibroblasts) | early apoptosis (AV+PI−) [1] | late apoptosis (AV+PI+) [1] | caspase 3/7 cleavage (human fibroblasts) | increase in caspase activity (U-2OS cells [2]; [6]) | apoptosis (U-2OS cells [2]; U-2OS, absence of doxorubicin treatment) | cell viability (U-2OS cells [3]) | caspase activity (U-2OS cells [4]) | endogenous human p53 expression ([5]; U-2OS cells expressing EP53^anc) | p53 target genes, p21 and MDM2 (western blot) [5, 6]
COc1cccc2c1C(=O)c1c(O)c3c(c(O)c1C2=O)C[C@@](O)(C(=O)CO)C[C@@H]3O[C@H]1C[C@H](N)[C@H](O)[C@H](C)O1 [doxorubicin] | 9.1 fold increase | significant increase | significant increase | 2.24 fold increase | – | – | – | – | – | –
EP53^anc: ancestral elephant TP53 gene (SEQ ID NO: 2) encoding elephant p53 protein (SEQ ID NO: 3), expressed from vector in cells (protein, listed as Loxodonta africana) MEEPQSDLSTELPLSQETFSYLWELLPENPVLSPTLPPAVEVMDDLLLSEDTANWLESQVEAQGMSTTPAPATPTPVAPAPATSWTLSSSVPSQKTYPGTYGFRLGFLHSGTAKSVTCTYSPDLNKLFCQLAKTCPVQLWVASPPPPGTRVRTMAIYKKSEHMTEVVKRCPHHERCSDSSDGLAPPQHLIRVEGNLRAEYLEDSITLRHSVVVPYEPPEVGSDCTTIHFNFMCNSSCMGGMNRRPILTIITLEDSSGNLLGRNSFEVRICACPGRDRRTEEENFHKKGEPCPEPPPPGRSTKRALPTNTSSSTQPKKKPLDEEYFTLQIRGRERFKMFLELNEALELKDAQAGKEPEGSRAHSSPSKSKKGQSTSRHKKPMFKREGPDSD | – | – | – | – | 20 fold | significant apoptosis | 35.6% | 14.22% | less | increase
